Experimental findings from article PMC4976285 are described below.

This test addresses HLA-A*0201 molecules on the surface of T2 cells (human (endogenous in T2) | human). Nature of the test: flow cytometry on cells. For orientation: Flow cytometry measures light scatter and fluorescence of single cells or particles in a stream.

“HTNV nucleoprotein peptide FA9 (aa129–aa137, …)” showed a fluorescent index (FI) of 2.77.
